According to US20260042834A1 (HBM ALPHA THERAPEUTICS, published 2026):
Where a chain is given by its changes, count along the chain named. Values joined by “and” are separate entries in the source; they are usually repeats but may differ in a detail not shown here. Equal values may be shown once. Values belong to the binder of their own block, whether it stands above or below them.

Tests used:
biotinylated CRH [1] = target: T1, biotinylated CRH (human and mouse, not fully specified; biotinylated, position not stated); test: Octet in-tandem, row = 1st mAb; competitor (2nd mAb) PR005660
T1 construct: also called Biotin-CRH; biotin-labeled CRH
T1 peptide: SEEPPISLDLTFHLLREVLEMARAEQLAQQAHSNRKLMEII
Experimental: (§1) SA sensors (Fortebio, Cat #18-5019) were hydrated in running buffer for 10 mins.

biotinylated CRH [2] = target: T1, biotinylated CRH; test: Octet BLI, biotinylated CRH on SA sensor
biotinylated CRH [3] = target: T1, biotinylated CRH; test: Octet in-tandem, row = 1st mAb; competitor (2nd mAb) PR302334
Experimental: as §1

biotinylated CRH [4] = target: T1, biotinylated CRH; test: Octet in-tandem, row = 1st mAb; competitor (2nd mAb) PR303394
Experimental: as §1

biotinylated CRH [5] = target: T1, biotinylated CRH; test: Octet in-tandem, row = 1st mAb; competitor (2nd mAb) PR301777
Experimental: as §1

CRH (NT Biotin) = target: T2, CRH (NT Biotin) (human and mouse, not fully specified; biotin at the N-terminus); test: ELISA, biotin peptide on streptavidin plate
T2 peptide: T1 peptide
Experimental: (§2) Streptavidin (Thermo, Cat: 21125) was diluted in PBS to a concentration of 2 μg/ml. 100 μl of diluted streptavidin was added per well to ELISA microplates, and the plates were incubated overnight at 4° C. […] 100 μL of 3,3′,5,5′-tetramethylbenzidine (TMB) substrate (Biopanda, Cat: TMB-S-003) was added, and the plates were incubated at room temperature for 15 minutes. 100 μL of ELISA stopping solution (Solarbio, Cat #: C1058) was added to terminate the reaction, and the optical density at 450 nm (OD450 nm) was determined by an ELISA plate reader (Molecular Devices, Spectra max 384 plus).

hUCN1 (NT Biotin) = target: T3, hUCN1 (NT Biotin) (human, UniProt P55089 83-122, biotin at the N-terminus); test: ELISA, biotin peptide on streptavidin plate
T3 construct: also called human UCN1 (NT biotin)
T3 peptide (looked up): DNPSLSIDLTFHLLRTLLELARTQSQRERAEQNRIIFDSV
Experimental: as §2

N-Terminal CRH = target: T4, N-Terminal CRH (human and mouse, C-terminal K-Biotin); test: ELISA, biotin peptide on streptavidin plate
T4 construct: also called N-Ter-CRH (CT-Bion)
T4 peptide: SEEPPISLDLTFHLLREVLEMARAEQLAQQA
Experimental: as §2

CRH (CT Biotin) = target: T5, CRH (CT Biotin) (human and mouse, C-terminal K-Biotin); test: ELISA, biotin peptide on streptavidin plate
T5 construct: also called Peptide 4 (CRH-Biotin)
T5 peptide: T1 peptide
Experimental: as §2

hUCN1 (CT Biotin) = target: T6, hUCN1 (CT Biotin) (human, UniProt P55089 83-122, biotin at the C-terminus); test: ELISA, biotin peptide on streptavidin plate
T6 construct: also called human UCN1 (CT biotin)
T6 peptide (looked up): T3 peptide (looked up)
Experimental: as §2

[6] = target: T7, corticotropin-releasing hormone (CRH) peptide (human and mouse, not fully specified); test: cell-based or functional assay
T7 peptide: T1 peptide

human UCN2 peptide [7] = target: T8, human UCN2 peptide (human, UniProt Q96RP3 72-109, limits assumed, not fully specified; biotin at N- or C-terminus in the ELISA); test: ELISA on streptavidin-captured hUCN2 (NT biotin) and hUCN2 (CT biotin), mAb at 100 nM and 10 nM, OD450
T8 construct: also called hUCN2; hUCN2 (NT Biotin)
T8 peptide (looked up): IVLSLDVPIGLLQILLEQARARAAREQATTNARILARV
Experimental: (§3) Streptavidin (Thermo, Cat: 21125) was diluted in PBS with a concentration of 2 μg/mL. 100 μL of diluted streptavidin was added per well to ELISA microplates, and the plates were incubated overnight at 4° C. Plates were blocked with ELISA blocking solution (containing 2% w/v BSA, 0.05% (v/v) Tween-20, pH 7.4 PBS buffer) at 37° C. for 1 hour, and then incubated with either 1 μg/mL hUCN1 (NT Biotin), hUCN1 (CT Biotin), hUCN2 (NT Biotin), hUCN2 (CT Biotin), hUCN3 (NT Biotin), or hUCN3 (CT Biotin) for 1 hour at 37° C. […] 100 μl of TMB Substrate (Biopanda, Cat: TMB-S-003) was added, and the plates were incubated at room temperature for 15 minutes. 100 μL of ELISA stopping solution (Solarbio, Cat #: C1058) was then added to terminate the reaction, and the OD450 nm was determined by an ELISA plate reader (Molecular Devices, Spectra max 384 plus).

biotinylated CRH [8] = target: T1, biotinylated CRH; test: Octet in-tandem, row = 1st mAb; competitor (2nd mAb) PR006669
Experimental: as §1

human UCN3 peptide [9] = target: T9, human UCN3 peptide (human, UniProt Q969E3 120-157, not fully specified; biotin at N- or C-terminus in the ELISA); test: ELISA on streptavidin-captured hUCN3 (NT biotin) and hUCN3 (CT biotin), mAb at 100 nM and 10 nM, OD450
T9 construct: also called hUCN3; hUCN3 (NT Biotin)
T9 peptide (looked up): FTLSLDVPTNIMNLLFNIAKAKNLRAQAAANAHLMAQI
Experimental: as §3

biotinylated CRH [10] = target: T1, biotinylated CRH; test: Octet in-tandem, row = 1st mAb; competitor (2nd mAb) PR302341-34
Experimental: as §1

biotinylated CRH [11] = target: T1, biotinylated CRH; test: competitive ELISA, coated 1st mAb; competitor hIgG1
Experimental: (§4) For epitope binding, a competitive ELISA was performed. Specifically, 1 μg/ml of capture antibody, 100 μl/well, was coated on a 96 well-plate at 4° C. overnight. Plates were blocked with ELISA blocking solution (containing 2% w/v BSA, 0.05% (v/v) Tween-20, pH 7.4 PBS buffer) at 37° C. for 1 hour. […] Subsequently, plates were washed and incubated with Streptavidin-Peroxidase (SIGMA, Cat: 52438-250UG) at 37° C. for 1 hour. 100 μL of 3,3′,5,5′-tetramethylbenzidine (TMB) substrate (Biopanda, Cat: TMB-S-003) was added, and the plates were incubated at room temperature for 15 minutes. 100 μL of ELISA stopping solution (Solarbio, Cat #: C1058) was added to terminate the reaction, and the optical density at 450 nm (OD450 nm) was determined by an ELISA plate reader (Molecular Devices, Spectra max 384 plus).

biotinylated CRH [12] = target: T1, biotinylated CRH; test: competitive ELISA, coated 1st mAb; competitor PR004290
Experimental: as §4

biotinylated CRH [13] = target: T1, biotinylated CRH; test: competitive ELISA, coated 1st mAb; competitor PR006148
Experimental: as §4

biotinylated CRH [14] = target: T1, biotinylated CRH; test: competitive ELISA, coated 1st mAb; competitor PR301777
Experimental: as §4

biotinylated CRH [15] = target: T1, biotinylated CRH; test: competitive ELISA, coated 1st mAb; competitor PR006152
Experimental: as §4

biotinylated CRH [16] = target: T1, biotinylated CRH; test: competitive ELISA, coated 1st mAb; competitor PR302055
Experimental: as §4

biotinylated CRH [17] = target: T1, biotinylated CRH; test: competitive ELISA, coated 1st mAb; competitor PR302064
Experimental: as §4

biotinylated CRH [18] = target: T1, biotinylated CRH; test: competitive ELISA, coated 1st mAb; competitor PR302069
Experimental: as §4

biotinylated CRH [19] = target: T1, biotinylated CRH; test: competitive ELISA, coated 1st mAb; competitor PR005660
Experimental: as §4

biotinylated CRH [20] = target: T1, biotinylated CRH; test: competitive ELISA, coated 1st mAb; competitor PR302050
Experimental: as §4

human UCN3 peptide [21] = target: T9, human UCN3 peptide; test: ELISA on streptavidin-captured hUCN3 (NT biotin) and hUCN3 (CT biotin), mAb at 100 nM and 10 nM; axis labelled RLU, scale 0-4
Experimental: as §3

human UCN2 peptide [22] = target: T8, human UCN2 peptide; test: ELISA on streptavidin-captured hUCN2 (NT biotin) and hUCN2 (CT biotin), mAb at 100 nM and 10 nM; axis labelled RLU, scale 0-4
Experimental: as §3

B2: PR302050 (antibody, human IgG1, kappa, V domains shown)
VH: EMQLVESGGGLVQPGGSLKLSCAASGFTFSNYWMNWVRQASGKGLEWVAEIRLKSNNYATHYAESVKGRFTISRDDSKSTVYLQMNSLKTEDTAVYYCTVGTLVYWGQGTLVTVSS
VL: DIVLTQSPDSLAVSLGERATINCRASQSVSTSTYNYMHWFQQKPGQPPKLLIKFASNLESGVPDRFSGSGSGTDFTLTISSLQAEDTAVYYCQHSWEIPYTFGQGTKLEIKR
notes: Humanized variant of PR301777
- % Inhibition (biotinylated CRH [11]): 0%
- % Inhibition (biotinylated CRH [12]): 94%
- % Inhibition (biotinylated CRH [13]): 95%
- % Inhibition (biotinylated CRH [14]): 94%
- % Inhibition (biotinylated CRH [15]): 96%
- Kd (biotinylated CRH [2]): < 0.001 nM
- koff (biotinylated CRH [2]): < 1e-07 s⁻¹
- kon (biotinylated CRH [2]): 470000 M⁻¹ s⁻¹
- % Inhibition (biotinylated CRH [16]): 94%
- % Inhibition (biotinylated CRH [17]): 95%
- % Inhibition (biotinylated CRH [18]): 94%
- % Inhibition (biotinylated CRH [19]): 94%
- % Inhibition (biotinylated CRH [20]): 94%

B3: PR302055 (antibody, human IgG1, kappa, V domains shown)
VH: B2 VH
VL: DIQLTQSPSSLSASVGDRVTITCRASQSVSTSTYNYMHWFQQKPGKAPKLLIKFASNLESGVPSRFSGSGSGTDFTLTISSLQPEDTATYYCQHSWEIPYTFGQGTKLEIKR
notes: Humanized variant of PR301777
- % Inhibition (biotinylated CRH [11]): 2%
- % Inhibition (biotinylated CRH [12]): 94%
- % Inhibition (biotinylated CRH [13]): 95%
- % Inhibition (biotinylated CRH [14]): 94%
- % Inhibition (biotinylated CRH [15]): 95%
- % Inhibition (biotinylated CRH [16]): 95%
- % Inhibition (biotinylated CRH [17]): 95%
- % Inhibition (biotinylated CRH [18]): 95%
- % Inhibition (biotinylated CRH [19]): 94%
- % Inhibition (biotinylated CRH [20]): 95%

B5: PR302064 (antibody, human IgG1, kappa, V domains shown)
VH: B2 VH with Q13K, K19R, S41P
VL: B2 VL
notes: Humanized variant of PR301777
- % Inhibition (biotinylated CRH [11]): 1%
- % Inhibition (biotinylated CRH [12]): 93%
- % Inhibition (biotinylated CRH [13]): 94%
- % Inhibition (biotinylated CRH [14]): 94%
- % Inhibition (biotinylated CRH [15]): 94%
- Kd (biotinylated CRH [2]): < 0.001 nM
- % Inhibition (biotinylated CRH [16]): 95%
- % Inhibition (biotinylated CRH [17]): 95%
- % Inhibition (biotinylated CRH [18]): 95%
- % Inhibition (biotinylated CRH [19]): 94%
- EC50 (CRH (NT Biotin)): 0.03 nM
- EC50 (hUCN1 (NT Biotin)): 0.118 nM and 0.142 nM
- EC50 (N-Terminal CRH): 0.022 nM
- EC50 (CRH (CT Biotin)): 0.026 nM and 0.023 nM
- EC50 (hUCN1 (CT Biotin)): 0.208 nM and 0.256 nM
- CHO-CRE-hCRHR1 0.5 nM CRH IC50 [6]: 0.531 nM and 0.664 nM
- binding result (human UCN3 peptide [21]): no binding (tested: 100 nM)
- % Inhibition (biotinylated CRH [20]): 95%
- binding result (human UCN2 peptide [22]): no binding (tested: 100 nM)

Second part, the binder after the results:

- % Inhibition (biotinylated CRH [1]): 76%
- Kd (biotinylated CRH [2]): 0.513 nM
- koff (biotinylated CRH [2]): 0.000136 s⁻¹
- kon (biotinylated CRH [2]): 266000 M⁻¹ s⁻¹
- % Inhibition (biotinylated CRH [3]): 65%
- % Inhibition (biotinylated CRH [4]): 77%
- % Inhibition (biotinylated CRH [5]): 80%
- EC50 (CRH (NT Biotin)): 0.025 nM
- EC50 (hUCN1 (NT Biotin)): 0.126 nM
- EC50 (N-Terminal CRH): 0.025 nM
- EC50 (CRH (CT Biotin)): 0.029 nM
- EC50 (hUCN1 (CT Biotin)): 1.88 nM
- CHO-CRE-hCRHR1 0.5 nM CRH IC50 [6]: 1.7 nM
- binding result (human UCN2 peptide [7]): no binding (tested: 100 nM)
- % Inhibition (biotinylated CRH [8]): 76%
- binding result (human UCN3 peptide [9]): no binding (tested: 100 nM)
- % Inhibition (biotinylated CRH [10]): 74%
B1: PR302309-8 (antibody, human IgG1, kappa, V domains shown)
VH: QIQLVQSGSELKKPGASVKVSCKASGYTFTNYGMNWVRQAPGQGLEWMGWINTYTGEPIYTDDFKGRFVFSLDTSVSTAYLQISSLKAEDTAVYYCSRSTMITTGGVFAYWGQGTLVTVSS
VL: DVVMTQSPLSLPVTLGQPASISCRSSQTIVHSDGNTYLEWYQQRPGQSPRLLIYKVSNRFSGVPDRFSGSGSGTDFTLKISRVEAEDLGVYYCFQGSHVPWTFGGGTKVEIKR
notes: Humanized variant of PR302309

- % Inhibition (biotinylated CRH [11]): 0%
- % Inhibition (biotinylated CRH [12]): 93%
- % Inhibition (biotinylated CRH [13]): 95%
- % Inhibition (biotinylated CRH [14]): 94%
- % Inhibition (biotinylated CRH [15]): 94%
- % Inhibition (biotinylated CRH [16]): 95%
- % Inhibition (biotinylated CRH [17]): 95%
- % Inhibition (biotinylated CRH [18]): 95%
- % Inhibition (biotinylated CRH [19]): 94%
- % Inhibition (biotinylated CRH [20]): 95%
B4: PR302069 (antibody, human IgG1, kappa, V domains shown)
VH: B2 VH with Q13K, K19R, S41P
VL: B3 VL
notes: Humanized variant of PR301777
